Four molecules from patent US20250144205A1, “COMPOSITIONS AND METHODS FOR TREATING INFECTIOUS DISEASES” (priority 2022, published 2025) can be followed below.

Assay [1] deals with TSE-induced lung injury (TSE-LI). The assay can be described thus: chronic tobacco smoke exposure induced lung injury (TSE-LI) in wild-type mice. It counts as in vivo. The note with it: for MUC5AC (M5Ac) expression (lung mRNA by qPCR, IHC) / FOXA2 mRNA (qPCR) / surfactant protein-C (SP-C) mRNA (qPCR): WT mice with TSE-LI, 2.5 mg/kg IP 5 days a week for 4 weeks; for MUC5AC (M5Ac) expression (lung mRNA by qPCR, IHC): FIG. 12A, 12D; for FOXA2 mRNA (qPCR): FIG. 12B; for surfactant protein-C (SP-C) mRNA (qPCR): FIG. 12C; for chronic TS exposure (TSE) induced lung injury (TSE-LI): WT mice, 2.5 mg/kg IP 5 days a week for 4 weeks after 16 weeks TSE. The procedure: Recombinant full-length U5a protein (U5a^FL), extracellular domain of U5a^FL (U5a^ECD) and U5a^ECD-specific monoclonal antibody (U5a^mAb, the 17C9 1 anti-U5a antibody comprising the sequences of SEQ ID NOs. 204 and 211) mitigated chronic TS exposure (TSE) induced lung injury (TSE-LI) in wild-type (WT) mice. WT mice were kept in ambient AIR or exposed to tobacco smoke (TSE) for 4 h/day 5 days a week. After 16 weeks, WT mice with TSE-LI were left untreated (None) or treated with 2.5 mg/kg of U5a^FL, U5a^ECD and U5amAb 5 days a week for 4 weeks by IP injection. Total lung RNA were analyzed for MUC5AC (M5Ac) (FIG. 12A), FOXA2 (FIG. 12B) and surfactant protein-C(SP-C) (FIG. 12C) mRNA by qPCR. Lung sections of mice treated as in FIG. 12A were subjected to IHC analysis for M5Ac (FIG. 12D). We found increased expression of U5a in AECs and ATII cells in lungs of patients with COPD and mice with TSE-LI. […] In addition, increased surfactant protein-C(SP-C) indicates improved survival of ATII cells, which is otherwise reduced due to increased TSE-induced senescence and apoptosis of ATII cells seen in mice with TSE-LI left untreated.

A further assay has as its system rSARS-CoV-2/mCherry-Nluc. The format is in vivo, K18 hACE2 transgenic mice. The note with it: for virus titration in lungs (viral titers by plaque assay): 2.5 mg/kg i.p. once daily, compared to the mock groups, FIG. 8A; for body weight and survival: mouse, in vivo.

B1: U5a^FL: Recombinant full-length U5a protein (uncoordinated receptor 5A); full-length human UNC5A is SEQ ID NO: 5 (protein, listed as Homo sapiens)
chain: MAVRPGLWPALLGIVLAAWLRGSGAQQSATVANPVPGANPDLLPHFLVEPEDVYIVKNKPVLLVCKAVPATQIFFKCNGEWVRQVDHVIERSTDGSSGLPTMEVRINVSRQQVEKVFGLEEYWCQCVAWSSSGTTKSQKAYIRIAYLRKNFEQEPLAKEVSLEQGIVLPCRPPEGIPPAEVEWLRNEDLVDPSLDPNVYITREHSLVVRQARLADTANYTCVAKNIVARRRSASAAVIVYVDGSWSPWSKWSACGLDCTHWRSRECSDPAPRNGGEECQGTDLDTRNCTSDLCVHTASGPEDVALYVGLIAVAVCLVLLLLVLILVYCRKKEGLDSDVADSSILTSGFQPVSIKPSKADNPHLLTIQPDLSTTTTTYQGSLCPRQDGPSPKFQLTNGHLLSPLGGGRHTLHHSSPTSEAEEFVSRLSTQNYFRSLPRGTSNMTYGTFNFLGGRLMIPNTGISLLIPPDAIPRGKIYEIYLTLHKPEDVRLPLAGCQTLLSPIVSCGPPGVLLTRPVILAMDHCGEPSPDSWSLRLKKQSCEGSWEDVLHLGEEAPSHLYYCQLEASACYVFTEQLGRFALVGEALSVAAAKRLKLLLFAPVACTSLEYNIRVYCLHDTHDALKEVVQLEKQLGGQLIQEPRVLHFKDSYHNLRLSIHDVPSSLWKSKLLVSYQEIPFYHIWNGTQRYLHCTFTLERVSPSTSDLACKLWVWQVEGDGQSFSINFNITKDTRFAELLALESEAGVPALVGPSAFKIPFLIRQKIISSLDPPCRRGADWRTLAQKLHLDSHLSFFASKPSPTAMILNLWEARHFPNGNLSQLAAAVAGLGQPDAGLFTVSEAEC
Regarding B1, in assay [1], the “MUC5AC (M5Ac) expression (lung mRNA by qPCR, IHC)” value is reported as “significantly inhibits”; the “FOXA2 mRNA (qPCR)” value is on record as “inducing”; the “surfactant protein-C (SP-C) mRNA (qPCR)” value was “increased”; the “chronic TS exposure (TSE) induced lung injury (TSE-LI)” value was “mitigated”.

B2: M9^FL: recombinant full length MEGF9 (multiple EGF-like-domains-9); full-length human MEGF9 is SEQ ID NO: 1 (protein, listed as Homo sapiens)
chain: MNGGAERAMRSLPSLGGLALLCCAAAAAAAAVASAASAGNVTGGGGAAGQVDASPGPGLRGEPSHPFPRATAPTAQAPRTGPPRATVHRPLAATSPAQSPETTPLWATAGPSSTTFQAPLGPSPTTPPAAERTSTTSQAPTRPAPTTLSTTTGPAPTTPVATTVPAPTTPRTPTPDLPSSSNSSVLPTPPATEAPSSPPPEYVCNCSVVGSLNVNRCNQTTGQCECRPGYQGLHCETCKEGFYLNYTSGLCQPCDCSPHGALSIPCNSSGKCQCKVGVIGSICDRCQDGYYGFSKNGCLPCQCNNRSASCDALTGACLNCQENSKGNHCEECKEGFYQSPDATKECLRCPCSAVTSTGSCSIKSSELEPECDQCKDGYIGPNCNKCENGYYNFDSICRKCQCHGHVDPVKTPKICKPESGECINCLHNTTGFWCENCLEGYVHDLEGNCIKKEVILPTPEGSTILVSNASLTTSVPTPVINSTFTPTTLQTIFSVSTSENSTSALADVSWTQFNIIILTVIIIVVVLLMGFVGAVYMYREYQNRKLNAPFWTIELKEDNISFSSYHDSIPNADVSGLLEDDGNEVAPNGQLTLTTPIHNYKA
With B2, in the assay on rSARS-CoV-2/mCherry-Nluc, the “virus titration in lungs (viral titers by plaque assay)” value was “clear trend of decreased viral titers”; the “body weight and survival” value is reported as “remarkable improvement”.

B3: U5a^mAb: U5a^ECD-specific monoclonal antibody, the 17C9 1 anti-U5a antibody comprising the sequences of SEQ ID NOs. 204 and 211 (antibody)
heavy: QVQLQQPGAELVKPGASVKMSCKASGYTFTSYWITWVKQRPGQGLEWIGDIYPGSGSTTYNEKFKSKATLTVDTSSSTAYMQLSSLTSEDSAVYYCARRHYGSSSAWFAYWGQGTLVTVSAAKTTPPSVYPLAPGSAAQTNSMVTLGCLVKGYFPEPVTVTWNSGSLSSGVHTFPAVLQSDLYTLSSSVTVPSSTWPSQTVTCNVAHPASSTKVDKKIVPRDCGCKPCICTVPEVSSVFIFPPKPKDVLTITLTPKVTCVVVDISKDDPEVQFSWFVDDVEVHTAQTKPREEQINSTFRSVSELPIMHQDWLNGKEFKCRVNSAAFPAPIEKTISKTKGRPKAPQVYTIPPPKEQMAKDKVSLTCMITNFFPEDITVEWQWNGQPAENYKNTQPIMDTDGSYFVYSKLNVQKSNWEAGNTFTCSVLHEGLHNHHTEKSLSHSPGK
light: DIQMTQTTSSLSASLGDRVTISCSASQGIRNYLNWYQQKPDGTVKLLIYYTSSLHSGVPSRFSGSGSGTDYSLTISNLEPEDIATYYCQQYSKLPFTFGSGTKLEIKRADAAPTVSIFPPSSEQLTSGGASVVCFLNNFYPKDINVKWKIDGSERQNGVLNSWTDQDSKDSTYSMSSTLTLTKDEYERHNSYTCEATHKTSTSPIVKSFNRNEC
As to B3, in assay [1], the “MUC5AC (M5Ac) expression (lung mRNA by qPCR, IHC)” value is given as “significantly inhibits”; the “FOXA2 mRNA (qPCR)” value is recorded as “inducing”; the “surfactant protein-C (SP-C) mRNA (qPCR)” value was “increased”; the “chronic TS exposure (TSE) induced lung injury (TSE-LI)” value is on record as “mitigated”.

B4: M^9ECD: extracellular domain (ECD) fragment of recombinant M9 (MEGF9); ECD of MEGF9 given as SEQ ID NO: 102 (protein, listed as Homo sapiens)
chain: MGWSCIILFLVATATGVHSAAVASAASAGNVTGGGGAAGQVDASPGPGLRGEPSHPFPRATAPTAQAPRTGPPRATVHRPLAATSPAQSPETTPLWATAGPSSTTFQAPLGPSPTTPPAAERTSTTSQAPTRPAPTTLSTTTGPAPTTPVATTVPAPTTPRTPTPDLPSSSNSSVLPTPPATEAPSSPPPGHQWPVAKMPQKYLGKYACESNLKSKYLPLTQPVMNLRVSEAVKTEYVCNCSVVGSLNVNRCNQTTGQCECRPGYQGLHCETCKEGFYLNYTSGLCQPCDCSPHGALSIPCNSSGKCQCKVGVIGSICDRCQDGYYGFSKNGCLPCQCNNRSASCDALTGACLNCQENSKGNHCEECKEGFYQSPDATKECLRCPCSAVTSTGSCSIKSSELEPECDQCKDGYIGPNCNKCENGYYNFDSICRKCQCHGHVDPVKTPKICKPESGECINCLHNTTGFWCENCLEGYVHDLEGNCIKKEVILPTPEGSTILVSNASLTTSVPTPVINSTFTPTTLQTIFSVSTSENSTSALADVSWTQFN
As to B4, in the assay on rSARS-CoV-2/mCherry-Nluc, the “virus titration in lungs (viral titers by plaque assay)” value is listed as “clear trend of decreased viral titers”; the “body weight and survival” value was “remarkable improvement”.
